From publication PMC9531947, “Targeting A-kinase anchoring protein 12 phosphorylation in hepatic stellate cells regulates liver injury and fibrosis in mouse models” (eLife, 2022) come the findings set out here.

The target of this test is T1, AKAP12 with its five activation-responsive phospho-sites deleted by CRISPR-directed HDR, human HSCs (human (endogenous locus in primary …, UniProt Q02952-1 1-1782, deletion of the five phospho-sites T675, S676, S678, S687, S688 (PDEL; limits …).
T1 construct: human AKAP12 with the region of the phospho-sites T675, S676, S678, S687, S688 deleted; The transfected cells are a mixture of edited and unedited cells; the co-precipitate with the AKAP12 antibody holds both forms; also called CRISPR-edited AKAP12; PDEL (human); source: in cell extract and fixed cells
Kind of test: co-IP; extracts of primary human HSCs (cultured 0, 3 or 6 days; WT or CRISPR-edited HDR cells; negative control or Prkca siRNA A or B); AKAP12-HSP47 co-immunoprecipitation and western blot. As to conditions: partners not purified. (In western blotting, separated proteins are transferred to a membrane and probed.)

T1 sequence (Q02952 other isoform, or with tags, fused parts or gaps with the stated changes): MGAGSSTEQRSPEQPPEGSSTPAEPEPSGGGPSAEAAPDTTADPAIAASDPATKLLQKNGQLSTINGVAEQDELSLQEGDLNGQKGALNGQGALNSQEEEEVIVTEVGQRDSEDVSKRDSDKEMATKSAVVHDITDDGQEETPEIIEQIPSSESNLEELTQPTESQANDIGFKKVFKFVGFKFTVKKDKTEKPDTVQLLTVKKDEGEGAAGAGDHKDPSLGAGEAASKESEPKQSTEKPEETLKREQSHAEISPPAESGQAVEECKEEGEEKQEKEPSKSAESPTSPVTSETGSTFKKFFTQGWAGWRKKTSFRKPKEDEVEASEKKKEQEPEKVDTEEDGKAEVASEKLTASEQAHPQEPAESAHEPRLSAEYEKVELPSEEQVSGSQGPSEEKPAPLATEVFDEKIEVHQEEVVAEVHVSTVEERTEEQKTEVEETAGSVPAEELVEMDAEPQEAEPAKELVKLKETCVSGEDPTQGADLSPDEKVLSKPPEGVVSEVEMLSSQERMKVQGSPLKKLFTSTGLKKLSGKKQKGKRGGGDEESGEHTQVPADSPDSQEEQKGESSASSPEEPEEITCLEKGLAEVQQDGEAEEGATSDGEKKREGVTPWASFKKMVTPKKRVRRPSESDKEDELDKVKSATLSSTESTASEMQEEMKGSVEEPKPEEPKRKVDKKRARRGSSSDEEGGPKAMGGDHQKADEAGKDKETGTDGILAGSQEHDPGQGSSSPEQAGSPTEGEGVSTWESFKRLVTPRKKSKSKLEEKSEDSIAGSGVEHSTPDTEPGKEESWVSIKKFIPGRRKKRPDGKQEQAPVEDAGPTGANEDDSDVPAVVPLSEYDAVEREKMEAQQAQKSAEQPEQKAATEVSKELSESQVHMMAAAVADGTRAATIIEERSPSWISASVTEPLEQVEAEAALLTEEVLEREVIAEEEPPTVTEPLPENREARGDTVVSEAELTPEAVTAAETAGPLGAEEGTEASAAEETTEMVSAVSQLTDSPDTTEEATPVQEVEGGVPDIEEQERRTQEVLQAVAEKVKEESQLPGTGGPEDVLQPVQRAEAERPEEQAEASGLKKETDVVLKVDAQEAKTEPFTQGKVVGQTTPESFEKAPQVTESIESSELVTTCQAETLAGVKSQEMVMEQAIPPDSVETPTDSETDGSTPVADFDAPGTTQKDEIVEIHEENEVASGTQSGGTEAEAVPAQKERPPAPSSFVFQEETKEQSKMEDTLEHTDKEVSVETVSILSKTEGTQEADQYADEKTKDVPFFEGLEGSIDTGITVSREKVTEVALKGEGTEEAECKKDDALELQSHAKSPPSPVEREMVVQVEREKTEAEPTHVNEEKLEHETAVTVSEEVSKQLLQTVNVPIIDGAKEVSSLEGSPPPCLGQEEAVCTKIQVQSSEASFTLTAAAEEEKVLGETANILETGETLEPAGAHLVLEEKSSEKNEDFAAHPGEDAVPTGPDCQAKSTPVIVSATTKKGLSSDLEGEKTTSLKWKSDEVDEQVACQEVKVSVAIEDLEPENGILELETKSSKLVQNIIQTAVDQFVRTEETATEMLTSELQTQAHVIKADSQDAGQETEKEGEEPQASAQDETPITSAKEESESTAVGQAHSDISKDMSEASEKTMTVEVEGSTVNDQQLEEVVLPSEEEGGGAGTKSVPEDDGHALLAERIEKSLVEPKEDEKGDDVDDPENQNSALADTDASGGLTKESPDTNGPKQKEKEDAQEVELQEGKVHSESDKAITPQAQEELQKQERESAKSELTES

B1: heat-shock protein 47 (HSP47), human, endogenous (natural protein, UniProt P50454 19-418, looked up)
chain: AEVKKPAAAAAPGTAEKLSPKAATLAERSAGLAFSLYQAMAKDQAVENILVSPVVVASSLGLVSLGGKATTASQAKAVLSAEQLRDEEVHAGLGELLRSLSNSTARNVTWKLGSRLYGPSSVSFADDFVRSSKQHYNCEHSKINFRDKRSALQSINEWAAQTTDGKLPEVTKDVERTDGALLVNAMFFKPHWDEKFHHKMVDNRGFMVTRSYTVGVMMMHRTGLYNYYDDEKEKLQIVEMPLAHKLSSLIILMPHHVEPLERLEKLLTKEQLKIWMGKMQKKAVAISLPKGVVEVTHDLQKHLAGLGLTEAIDKNKADLSRMSGKKDLYLASVFHATAFELDTDGNPFDQDIYGREELRSPKLFYADHPFIFLVRDTQSGSLLFIGRLVRPKGDKMRDEL
notes: heat-shock protein 47 (HSP47), ER-resident collagen chaperone, human, endogenous in primary HSCs and liver tissue; source: endogenous, primary human HSC extracts and fixed cells; human liver tissue array
As to B1, the “fold change of the AKAP12-HSP47 co-immunoprecipitate against WT cells” value worked out at 2.5 fold.
